System: Roquin-1 (aa 2-441);NUFIP2 (aa 255-411) (mouse;human)
Assay: EMSA
Settings: 10 mM HEPES pH 7.5, 150 mM NaCl, 2 mM MgCl2, 4% glycerol, tRNA 30 ug/mL, 5 nM labeled RNA, 30 min at 25 °C; native 4% TBE PAGE

| Substance | Kd [nM] |
| --- | --- |
| ICOS 3'-UTR tandem cis-element (nt 2183-2271) | 11.3 |
| Ox40 3'-UTR tandem element (nt 1064-1126) | 10.7 |

Source: paper PMC5775257
